Measured values from patent US20110142868A1 (CHIRALIX B V, published 2011).
Numbered stars: 1 amine (or outer) side, 2 acyl side, 3 side chain; on linkers, the order of the positions; unused ones are H or OH. Square brackets hold non-standard residues; d marks the D form. Ends that are not written are not given here. * marks the point of attachment. O(CA) = ornithine chloroamidine, N=C(CCl)NCCC[C@H](N[*:1])C(=O)[*:2]; Orn(fluoroacetimidoyl) = N=C(CF)NCCC[C@H](N)C(=O)O; Moc = COC(=O)*

Columns and labels:
Assay in all cases: cell-based or functional assay
recombinant human PAD2 [1] = biological target: T1, recombinant human PAD2 (human, UniProt Q9Y2J8 1-665)
T1 sequence (Q9Y2J8 whole entry): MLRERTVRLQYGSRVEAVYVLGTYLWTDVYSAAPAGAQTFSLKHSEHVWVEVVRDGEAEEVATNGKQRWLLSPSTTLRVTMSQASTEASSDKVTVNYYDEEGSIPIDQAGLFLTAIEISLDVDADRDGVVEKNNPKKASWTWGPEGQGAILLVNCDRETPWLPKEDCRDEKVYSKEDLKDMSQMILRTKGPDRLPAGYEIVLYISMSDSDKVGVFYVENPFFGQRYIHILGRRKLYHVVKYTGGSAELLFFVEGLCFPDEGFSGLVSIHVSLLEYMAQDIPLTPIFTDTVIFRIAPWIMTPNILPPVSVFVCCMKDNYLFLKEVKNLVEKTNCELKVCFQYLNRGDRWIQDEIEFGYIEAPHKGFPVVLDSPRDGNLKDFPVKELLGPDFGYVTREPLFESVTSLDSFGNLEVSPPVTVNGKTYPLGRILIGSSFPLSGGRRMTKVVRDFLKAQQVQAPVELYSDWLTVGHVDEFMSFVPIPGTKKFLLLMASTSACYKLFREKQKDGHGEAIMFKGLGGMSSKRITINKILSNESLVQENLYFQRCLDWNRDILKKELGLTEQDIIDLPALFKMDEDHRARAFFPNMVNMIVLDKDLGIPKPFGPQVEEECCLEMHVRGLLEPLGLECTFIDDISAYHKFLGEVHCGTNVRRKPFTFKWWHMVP

recombinant human PAD4 [2] = biological target: T2, recombinant human PAD4 (human, UniProt Q9UM07 1-663)
T2 sequence (Q9UM07 whole entry): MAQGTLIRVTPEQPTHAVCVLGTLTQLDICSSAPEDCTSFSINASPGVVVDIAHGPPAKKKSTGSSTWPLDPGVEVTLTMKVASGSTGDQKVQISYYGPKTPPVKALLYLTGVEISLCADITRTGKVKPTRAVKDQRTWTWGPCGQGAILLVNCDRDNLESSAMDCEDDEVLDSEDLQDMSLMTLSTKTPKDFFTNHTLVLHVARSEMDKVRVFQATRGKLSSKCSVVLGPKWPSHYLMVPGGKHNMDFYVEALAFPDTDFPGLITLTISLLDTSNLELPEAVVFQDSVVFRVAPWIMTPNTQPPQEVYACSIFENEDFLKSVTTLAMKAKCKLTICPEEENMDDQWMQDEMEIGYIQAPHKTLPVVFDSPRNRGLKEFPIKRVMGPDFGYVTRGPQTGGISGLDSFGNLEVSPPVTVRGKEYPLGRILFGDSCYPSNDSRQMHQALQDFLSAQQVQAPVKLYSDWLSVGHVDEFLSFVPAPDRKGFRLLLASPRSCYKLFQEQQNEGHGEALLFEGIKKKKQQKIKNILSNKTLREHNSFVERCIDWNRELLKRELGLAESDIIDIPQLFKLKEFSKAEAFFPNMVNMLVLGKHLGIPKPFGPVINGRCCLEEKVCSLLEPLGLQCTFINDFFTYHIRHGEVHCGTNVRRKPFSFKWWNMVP

recombinant human PAD2 [3] = biological target: T1, recombinant human PAD2; remark: listed apart in the source
recombinant human PAD4 [4] = biological target: T2, recombinant human PAD4; remark: listed apart in the source
recombinant human PAD2 [5] = biological target: T1, recombinant human PAD2; remark: listed apart in the source
recombinant human PAD4 [6] = biological target: T2, recombinant human PAD4; remark: listed apart in the source
[7] = biological target: human N(G),N(G)-dimethyl-L-arginine dimethylaminohydrolase isotype 1 (human, UniProt O94760 1-285)
Sequence of human N(G),N(G)-dimethyl-L-arginine dimethylaminohydrolase isotype 1 (O94760 whole entry): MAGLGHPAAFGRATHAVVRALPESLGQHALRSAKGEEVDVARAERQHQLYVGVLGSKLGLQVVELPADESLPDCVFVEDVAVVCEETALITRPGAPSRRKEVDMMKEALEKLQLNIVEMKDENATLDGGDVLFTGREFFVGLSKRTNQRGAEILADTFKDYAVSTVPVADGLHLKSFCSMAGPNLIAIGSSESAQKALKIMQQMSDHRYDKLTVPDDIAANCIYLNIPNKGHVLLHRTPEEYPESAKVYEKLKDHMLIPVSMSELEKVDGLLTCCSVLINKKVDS

caspase-3 = biological target: caspase-3
creatine kinase = biological target: creatine kinase
transglutaminase = biological target: transglutaminase
papain = biological target: T3, papain (UniProt P00784 134-345)
T3 sequence (looked up): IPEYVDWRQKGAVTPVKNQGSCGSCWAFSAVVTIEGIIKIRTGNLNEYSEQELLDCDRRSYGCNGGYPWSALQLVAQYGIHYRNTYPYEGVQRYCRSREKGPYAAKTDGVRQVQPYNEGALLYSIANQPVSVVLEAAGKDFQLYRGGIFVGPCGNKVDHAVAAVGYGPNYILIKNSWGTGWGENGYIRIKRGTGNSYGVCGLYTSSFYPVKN

recombinant human PAD2 [8] = biological target: T1, recombinant human PAD2; remark: listed apart in the source
recombinant human PAD4 [9] = biological target: T2, recombinant human PAD4; remark: listed apart in the source
recombinant human PAD2 [10] = biological target: T1, recombinant human PAD2; remark: listed apart in the source
recombinant human PAD4 [11] = biological target: T2, recombinant human PAD4; remark: listed apart in the source

GS[O(CA)]DG [G-S-O(CA)-D-G]
IC50 values (µM), ABAP PAD activity assay (recombinant human PAD2 [1]): 172 µM
IC50 values (µM), ABAP PAD activity assay (recombinant human PAD4 [2]): 816 µM

B1: 0743-58FA (peptide)
peptide: Ac-KFD[Orn(fluoroacetimidoyl)]DFI-NH2
SMILES: CC[C@H](C)[C@H](NC(=O)[C@H](Cc1ccccc1)NC(=O)[C@H](CC(=O)O)NC(=O)[C@H](CCCNC(=N)CF)NC(=O)[C@H](CC(=O)O)NC(=O)[C@H](Cc1ccccc1)NC(=O)[C@H](CCCCN)NC(C)=O)C(N)=O
conversion of 0708-30 by PAD2, 10 µM inhibitor (0 µM: 68) (recombinant human PAD2 [3]): 33%
conversion of 0708-30 by PAD2, 50 µM inhibitor (0 µM: 68) (recombinant human PAD2 [3]): 8%
conversion of 0708-30 by PAD2, 100 µM inhibitor (0 µM: 68) (recombinant human PAD2 [3]): 4%
conversion of 0708-30 by PAD4, 10 µM inhibitor (0 µM: 81) (recombinant human PAD4 [4]): 38%
conversion of 0708-30 by PAD4, 50 µM inhibitor (0 µM: 81) (recombinant human PAD4 [4]): 19%
conversion of 0708-30 by PAD4, 100 µM inhibitor (0 µM: 81) (recombinant human PAD4 [4]): 10%
IC50 values (µM), colorimetric assay (recombinant human PAD2 [5]): 35 µM
IC50 values (µM), colorimetric assay (recombinant human PAD4 [6]): 6 µM
IC50 values (µM), hDDAH-1 activity assay [7]: > 2000 µM
IC50 values (µM), caspase-3 activity assay (caspase-3): 920 µM
IC50 values (µM), creatine kinase activity assay (creatine kinase): 800 µM
IC50 values (µM), transglutaminase activity assay (transglutaminase): 1000 µM
IC50 values (µM), papain activity assay (papain): > 2000 µM
Inhibition of PAD2: value at 10 µM inhibitor (0 µM: 74) (recombinant human PAD2 [8]): 39%
Inhibition of PAD2: value at 20 µM inhibitor (0 µM: 74) (recombinant human PAD2 [8]): 26%
Inhibition of PAD2: value at 40 µM inhibitor (0 µM: 74) (recombinant human PAD2 [8]): 15%
Inhibition of PAD2: value at 80 µM inhibitor (0 µM: 74) (recombinant human PAD2 [8]): 9%
Inhibition of PAD4: value at 10 µM inhibitor (0 µM: 71) (recombinant human PAD4 [9]): 46%
Inhibition of PAD4: value at 20 µM inhibitor (0 µM: 71) (recombinant human PAD4 [9]): 36%
Inhibition of PAD4: value at 40 µM inhibitor (0 µM: 71) (recombinant human PAD4 [9]): 18%
Inhibition of PAD4: value at 80 µM inhibitor (0 µM: 71) (recombinant human PAD4 [9]): 13%

KWH[Orn(fluoroacetimidoyl)]DFF [K W H O(FA) D F F]
IC50 values (µM), ABAP PAD activity assay, second round (recombinant human PAD2 [10]): 16 µM
IC50 values (µM), ABAP PAD activity assay, second round (recombinant human PAD4 [11]): 161 µM

B2: 0748-17FA (peptide)
peptide: Ac-KLH[Orn(fluoroacetimidoyl)]EWM-NH2
SMILES: CSCC[C@H](NC(=O)[C@H](Cc1c[nH]c2ccccc12)NC(=O)[C@H](CCC(=O)O)NC(=O)[C@H](CCCNC(=N)CF)NC(=O)[C@H](Cc1c[nH]cn1)NC(=O)[C@H](CC(C)C)NC(=O)[C@H](CCCCN)NC(C)=O)C(N)=O
conversion of 0708-30 by PAD2, 10 µM inhibitor (0 µM: 68) (recombinant human PAD2 [3]): 58%
conversion of 0708-30 by PAD2, 50 µM inhibitor (0 µM: 68) (recombinant human PAD2 [3]): 35%
conversion of 0708-30 by PAD2, 100 µM inhibitor (0 µM: 68) (recombinant human PAD2 [3]): 24%
conversion of 0708-30 by PAD4, 10 µM inhibitor (0 µM: 81) (recombinant human PAD4 [4]): 64%
conversion of 0708-30 by PAD4, 50 µM inhibitor (0 µM: 81) (recombinant human PAD4 [4]): 32%
conversion of 0708-30 by PAD4, 100 µM inhibitor (0 µM: 81) (recombinant human PAD4 [4]): 18%

GS[Orn(fluoroacetimidoyl)]DG [G-S-O(FA)-D-G]
IC50 values (µM), ABAP PAD activity assay (recombinant human PAD2 [1]): 18 µM
IC50 values (µM), ABAP PAD activity assay (recombinant human PAD4 [2]): 443 µM

GD[O(CA)]SG [G-D-O(CA)-S-G]
IC50 values (µM), ABAP PAD activity assay (recombinant human PAD2 [1]): 76 µM
IC50 values (µM), ABAP PAD activity assay (recombinant human PAD4 [2]): 189 µM

TD[Orn(fluoroacetimidoyl)]GS [T-D-O(FA)-G-S]
IC50 values (µM), ABAP PAD activity assay (recombinant human PAD2 [1]): 19 µM
IC50 values (µM), ABAP PAD activity assay (recombinant human PAD4 [2]): 58 µM
IC50 values (µM), ABAP PAD activity assay, second round (recombinant human PAD2 [10]): 49 µM
IC50 values (µM), ABAP PAD activity assay, second round (recombinant human PAD4 [11]): 129 µM

Ac-GD[O(CA)]GS [CXP5.2-078]
IC50 values (µM), colorimetric assay (recombinant human PAD2 [5]): > 500 µM
IC50 values (µM), colorimetric assay (recombinant human PAD4 [6]): 18 µM
IC50 values (µM), hDDAH-1 activity assay [7]: 1200 µM
IC50 values (µM), caspase-3 activity assay (caspase-3): 1000 µM
IC50 values (µM), creatine kinase activity assay (creatine kinase): 780 µM
IC50 values (µM), transglutaminase activity assay (transglutaminase): 730 µM
IC50 values (µM), papain activity assay (papain): 1050 µM

KFD[Orn(fluoroacetimidoyl)]DFI [K F D O(FA) D F I]
IC50 values (µM), ABAP PAD activity assay, second round (recombinant human PAD2 [10]): 17 µM
IC50 values (µM), ABAP PAD activity assay, second round (recombinant human PAD4 [11]): 122 µM

YD[O(CA)]GS [Y-D-O(CA)-G-S]
IC50 values (µM), ABAP PAD activity assay, second round (recombinant human PAD2 [10]): 58 µM
IC50 values (µM), ABAP PAD activity assay, second round (recombinant human PAD4 [11]): 44 µM

TD[O(CA)]GS [T-D-O(CA)-G-S]
IC50 values (µM), ABAP PAD activity assay (recombinant human PAD2 [1]): 34 µM
IC50 values (µM), ABAP PAD activity assay (recombinant human PAD4 [2]): 153 µM

Ac-YD[O(CA)]GS [CXP5.2-081]
IC50 values (µM), colorimetric assay (recombinant human PAD2 [5]): 200 µM
IC50 values (µM), colorimetric assay (recombinant human PAD4 [6]): 10 µM
IC50 values (µM), hDDAH-1 activity assay [7]: 1330 µM
IC50 values (µM), caspase-3 activity assay (caspase-3): > 1000 µM
IC50 values (µM), creatine kinase activity assay (creatine kinase): 1000 µM
IC50 values (µM), transglutaminase activity assay (transglutaminase): > 1000 µM
IC50 values (µM), papain activity assay (papain): > 2000 µM

SS[O(CA)]DG [S-S-O(CA)-D-G]
IC50 values (µM), ABAP PAD activity assay (recombinant human PAD2 [1]): 55 µM
IC50 values (µM), ABAP PAD activity assay (recombinant human PAD4 [2]): 203 µM

SS[Orn(fluoroacetimidoyl)]DG [S-S-O(FA)-D-G]
IC50 values (µM), ABAP PAD activity assay (recombinant human PAD2 [1]): 14 µM
IC50 values (µM), ABAP PAD activity assay (recombinant human PAD4 [2]): 177 µM

GD[O(CA)]GS [G-D-O(CA)-G-S]
IC50 values (µM), ABAP PAD activity assay, second round (recombinant human PAD2 [10]): 38 µM
IC50 values (µM), ABAP PAD activity assay, second round (recombinant human PAD4 [11]): 60 µM

GD[Orn(fluoroacetimidoyl)]SG [G-D-O(FA)-S-G]
IC50 values (µM), ABAP PAD activity assay (recombinant human PAD2 [1]): 17 µM
IC50 values (µM), ABAP PAD activity assay (recombinant human PAD4 [2]): 178 µM

B3: 0748-09FA (peptide)
peptide: Ac-KWH[Orn(fluoroacetimidoyl)]DFF-NH2
SMILES: CC(=O)N[C@@H](CCCCN)C(=O)N[C@@H](Cc1c[nH]c2ccccc12)C(=O)N[C@@H](Cc1c[nH]cn1)C(=O)N[C@@H](CCCNC(=N)CF)C(=O)N[C@@H](CC(=O)O)C(=O)N[C@@H](Cc1ccccc1)C(=O)N[C@@H](Cc1ccccc1)C(N)=O
conversion of 0708-30 by PAD2, 10 µM inhibitor (0 µM: 68) (recombinant human PAD2 [3]): 23%
conversion of 0708-30 by PAD2, 50 µM inhibitor (0 µM: 68) (recombinant human PAD2 [3]): 6%
conversion of 0708-30 by PAD2, 100 µM inhibitor (0 µM: 68) (recombinant human PAD2 [3]): 5%
conversion of 0708-30 by PAD4, 10 µM inhibitor (0 µM: 81) (recombinant human PAD4 [4]): 51%
conversion of 0708-30 by PAD4, 50 µM inhibitor (0 µM: 81) (recombinant human PAD4 [4]): 22%
conversion of 0708-30 by PAD4, 100 µM inhibitor (0 µM: 81) (recombinant human PAD4 [4]): 13%
IC50 values (µM), caspase-3 activity assay (caspase-3): > 1000 µM
IC50 values (µM), creatine kinase activity assay (creatine kinase): 1000 µM
IC50 values (µM), transglutaminase activity assay (transglutaminase): > 1000 µM
IC50 values (µM), papain activity assay (papain): > 2000 µM
Inhibition of PAD2: value at 10 µM inhibitor (0 µM: 76) (recombinant human PAD2 [8]): 25%
Inhibition of PAD2: value at 20 µM inhibitor (0 µM: 76) (recombinant human PAD2 [8]): 14%
Inhibition of PAD2: value at 40 µM inhibitor (0 µM: 76) (recombinant human PAD2 [8]): 8%
Inhibition of PAD2: value at 80 µM inhibitor (0 µM: 76) (recombinant human PAD2 [8]): 4%
Inhibition of PAD4: value at 10 µM inhibitor (0 µM: 67) (recombinant human PAD4 [9]): 51%
Inhibition of PAD4: value at 20 µM inhibitor (0 µM: 67) (recombinant human PAD4 [9]): 38%
Inhibition of PAD4: value at 40 µM inhibitor (0 µM: 67) (recombinant human PAD4 [9]): 27%
Inhibition of PAD4: value at 80 µM inhibitor (0 µM: 67) (recombinant human PAD4 [9]): 18%

B4: CXP5-101 (peptide)
peptide: Moc-TD[Orn(fluoroacetimidoyl)]GS-OMe
SMILES: COC(=O)N[C@H](C(=O)N[C@@H](CC(=O)O)C(=O)N[C@@H](CCCNC(=N)CF)C(=O)NCC(=O)N[C@@H](CO)C(=O)OC)[C@@H](C)O
IC50 values (µM), colorimetric assay (recombinant human PAD2 [5]): 35 µM
IC50 values (µM), colorimetric assay (recombinant human PAD4 [6]): 10 µM
IC50 values (µM), hDDAH-1 activity assay [7]: > 2000 µM
IC50 values (µM), caspase-3 activity assay (caspase-3): > 1000 µM
IC50 values (µM), creatine kinase activity assay (creatine kinase): 780 µM
IC50 values (µM), transglutaminase activity assay (transglutaminase): 600 µM
IC50 values (µM), papain activity assay (papain): > 2000 µM
